According to patent US12295987B2, “Method of using a GIP/GLP1 co-agonist for diabetes” (Eli Lilly and Company, priority 2018, dated 2025):

Biological target: T1, human gastric inhibitory peptide receptor (hGIPR) (Homo sapiens, UniProt P48546)
T1 construct: expressed in transfected cells; host or cells: HEK293
T1 sequence (P48546 22-466): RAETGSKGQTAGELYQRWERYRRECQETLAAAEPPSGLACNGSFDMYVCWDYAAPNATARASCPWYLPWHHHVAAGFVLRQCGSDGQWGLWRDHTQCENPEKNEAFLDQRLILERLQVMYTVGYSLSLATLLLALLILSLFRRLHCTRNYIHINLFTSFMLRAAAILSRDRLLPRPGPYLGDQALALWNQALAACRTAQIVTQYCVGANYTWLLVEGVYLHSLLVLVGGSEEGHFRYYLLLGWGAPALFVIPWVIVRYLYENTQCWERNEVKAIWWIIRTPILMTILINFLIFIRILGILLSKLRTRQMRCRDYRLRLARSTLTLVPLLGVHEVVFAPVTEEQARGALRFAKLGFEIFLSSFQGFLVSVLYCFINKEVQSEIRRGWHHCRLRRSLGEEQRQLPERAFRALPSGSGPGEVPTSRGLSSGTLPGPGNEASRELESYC
Test: cAMP pharmacological functional assay in presence of 0.1% casein, hGIPR
Type: cell-based
Details: ratio of hGIPR to hGLP1R cAMP EC50 ratios

Substance | [hGIPR/hGLP1R] EC50 Ratio
Y-Aib-EGT-αMeF-TSDYSI-αMeL-LDKK((2-[2-(2-Amino-ethoxy)-ethoxy]-acetyl)2-(γGlu)-CO—(CH2)18—CO2H)AQ-Aib-Aad-FIEYLIEGGPSSGAPPPS-NH2 (YXEGTXTSDYSIXLDKKAQXXFIEYLIEGGPSSGAPPPS; Aib, Aad, αMeF, αMeL; acylated lysine C20 diacid; amide; (2)..(2) Xaa at position 2 is Aib; (6)..(6) Xaa at position 6 is alpha-methyl-Phe; (13)..(13) Xaa at position 13 is alpha-methyl-Leu; MOD_RES (17)..(17) Lys at position 17 is chemically modified by conjugation of the epsilon-amino group of the Lys side chain with (2-[2-(2-amino-ethoxy)-ethoxy]-acetyl)2-(gamma-Glu)-CO-(CH2)18- CO2H; (20)..(20) Xaa at position 20 is Aib; (21)..(21) Xaa at position 2) [Peptide 137] | 3.58
Y-Aib-EGT-αMeF-TSDYSI-αMeL-LDKK((2-[2-(2-Amino-ethoxy)-ethoxy]-acetyl)2-(γGlu)-CO—(CH2)18—CO2H)AQ-Aib-Aib-FIEYLIEGGPSSGAPPPS-NH2 (YXEGTXTSDYSIXLDKKAQXXFIEYLIEGGPSSGAPPPS; Aib, αMeF, αMeL; acylated lysine C20 diacid; amide; (2)..(2) Xaa at position 2 is Aib; (6)..(6) Xaa at position 6 is alpha-methyl-Phe; (13)..(13) Xaa at position 13 is alpha-methyl-Leu; MOD_RES (17)..(17) Lys at position 17 is chemically modified by conjugation of the epsilon-amino group of the Lys side chain with (2-[2-(2-amino-ethoxy)-ethoxy]-acetyl)2-(gamma-Glu)-CO-(CH2)18- CO2H; (20)..(20) Xaa at position 20 is Aib; (21)..(21) Xaa at position 2) [Peptide 143] | 3.89
Y-Aib-EGT-αMeF-TSDYSI-αMeL-LDKK((2-[2-(2-Amino-ethoxy)-ethoxy]-acetyl)2-(γGlu)-CO—(CH2)18—CO2H)AQ-Aib-DFIEYLIEGGPSSGAPPPS-NH2 (YXEGTXTSDYSIXLDKKAQXDFIEYLIEGGPSSGAPPPS; Aib, αMeF, αMeL; acylated lysine C20 diacid; amide; (2)..(2) Xaa at position 2 is Aib; (6)..(6) Xaa at position 6 is alpha-methyl-Phe; (13)..(13) Xaa at position 13 is alpha-methyl-Leu; MOD_RES (17)..(17) Lys at position 17 is chemically modified by conjugation of the epsilon-amino group of the Lys side chain with (2-[2-(2-amino-ethoxy)-ethoxy]-acetyl)2-(gamma-Glu)-CO-(CH2)18- CO2H; (20)..(20) Xaa at position 20 is Aib; MOD_RES (39)..(39) Ser at po) [Peptide 140] | 3.24
Y-Aib-EGT-αMeF-TSDYSI-αMeL-LDKK((2-[2-(2-Amino-ethoxy)-ethoxy]-acetyl)2-(γGlu)-CO—(CH2)18—CO2H)AQ-Aib-EFI-(D-Glu)-YLIEGGPSSG-NH2 (YXEGTXTSDYSIXLDKKAQXEFIXYLIEGGPSSG; Aib, αMe, D-Glu, C20 diacid lipidation, C-amide; (2)..(2) Xaa at position 2 is Aib; (6)..(6) Xaa at position 6 is alpha-methyl-Phe; (13)..(13) Xaa at position 13 is alpha-methyl-Leu; MOD_RES (17)..(17) Lys at position 17 is chemically modified by conjugation of the epsilon-amino group of the Lys side chain with (2-[2-(2-amino-ethoxy)-ethoxy]-acetyl)2-(gamma-Glu)-CO-(CH2)18- CO2H; (20)..(20) Xaa at position 20 is Aib; (24)..(24) Xaa at position 2) [Peptide 228] | 3.51
Y-Aib-EGT-αMeF-TSDYSI-αMeL-LDKK((2-[2-(2-Amino-ethoxy)-ethoxy]-acetyl)2-(γGlu)-CO—(CH2)18—CO2H)AQ-Aib-EFIEYLIEGGPSSG-NH2 (YXEGTXTSDYSIXLDKKAQXEFIEYLIEGGPSSG; Aib, αMe residues, C20 diacid lipidation, C-amide; (2)..(2) Xaa at position 2 is Aib; (6)..(6) Xaa at position 6 is alpha-methyl-Phe; (13)..(13) Xaa at position 13 is alpha-methyl-Leu; MOD_RES (17)..(17) Lys at position 17 is chemically modified by conjugation of the epsilon-amino group of the Lys side chain with (2-[2-(2-amino-ethoxy)-ethoxy]-acetyl)2-(gamma-Glu)-CO-(CH2)18- CO2H; (20)..(20) Xaa at position 20 is Aib; MOD_RES (34)..(34) Gly at po) [Peptide 123] | 2.56
Y-Aib-EGT-αMeF-TSDYSI-αMeL-LDKK((2-[2-(2-Amino-ethoxy)-ethoxy]-acetyl)2-(γGlu)-CO—(CH2)18—CO2H)AQ-Aib-TFIEYLIEGGPSSGAPPPS-NH2 (YXEGTXTSDYSIXLDKKAQXTFIEYLIEGGPSSGAPPPS; Aib, αMeF, αMeL; acylated lysine C20 diacid; amide; (2)..(2) Xaa at position 2 is Aib; (6)..(6) Xaa at position 6 is alpha-methyl-Phe; (13)..(13) Xaa at position 13 is alpha-methyl-Leu; MOD_RES (17)..(17) Lys at position 17 is chemically modified by conjugation of the epsilon-amino group of the Lys side chain with (2-[2-(2-amino-ethoxy)-ethoxy]-acetyl)2-(gamma-Glu)-CO-(CH2)18- CO2H; (20)..(20) Xaa at position 20 is Aib; MOD_RES (39)..(39) Ser at po) [Peptide 139] | 3.19
Y-Aib-EGT-αMeF-TSDYSI-αMeL-LDKK((2-[2-(2-Amino-ethoxy)-ethoxy]-acetyl)2-(γGlu)-CO—(CH2)18—CO2H)AQH-Aib-FIEYLIEGGPSSGAPPPS-NH2 (YXEGTXTSDYSIXLDKKAQHXFIEYLIEGGPSSGAPPPS; Aib, αMeF, αMeL; acylated lysine C20 diacid; amide; (2)..(2) Xaa at position 2 is Aib; (6)..(6) Xaa at position 6 is alpha-methyl-Phe; (13)..(13) Xaa at position 13 is alpha-methyl-Leu; MOD_RES (17)..(17) Lys at position 17 is chemically modified by conjugation of the epsilon-amino group of the Lys side chain with (2-[2-(2-amino-ethoxy)-ethoxy]-acetyl)2-(gamma-Glu)-CO-(CH2)18- CO2H; (21)..(21) Xaa at position 21 is Aib; MOD_RES (39)..(39) Ser at po) [Peptide 144] | 4.23
Y-Aib-EGT-αMeF-TSDYSI-αMeL-LDSK((2-[2-(2-Amino-ethoxy)-ethoxy]-acetyl)2-(γGlu)-CO—(CH2)18—CO2H)AQ-Aib-AFIEYLIEGGPSSG-NH2 [Peptide 99] | 3.61
Y-Aib-EGT-αMeF-TSDYSILLDKIAQ-Aib-AFIEYLIK((2-[2-(2-Amino-ethoxy)-ethoxy]-acetyl)2-(γGlu)-CO—(CH2)18—CO2H)GG-NH2 (YXEGTXTSDYSILLDKIAQXAFIEYLIKGG; Aib, αMeF; K lipidated C20 diacid-γGlu-AEEA2; C-terminal amide; (2)..(2) Xaa at position 2 is Aib; (6)..(6) Xaa at position 6 is alpha-methyl-Phe; (20)..(20) Xaa at position 20 is Aib; MOD_RES (28)..(28) Lys at position 28 is chemically modified by conjugation of the epsilon-amino group of the Lys side chain with (2-[2-(2-amino-ethoxy)-ethoxy]-acetyl)2-(gamma-Glu)-CO-(CH2)18- CO2H; MOD_RES (30)..(30) Gly at position 30 is amidated) [Peptide 95] | 2.52
Y-Aib-EGT-αMeF-TSDYSILLDKK((2-[2-(2-Amino-ethoxy)-ethoxy]-acetyl)2-(γGlu)-CO—(CH2)18—CO2H)AQ-Aib-AFIEYLIEGGPSSG-NH2 [Peptide 98] | 6.33
Y-Aib-EGTFTSDY-(D-Ser)-ILLDKK((2-[2-(2-Amino-ethoxy)-ethoxy]-acetyl)2-(γGlu)-CO—(CH2)18—CO2H)AQ-Aib-AFIEYLIEGGPSSGAPPPS-NH2 (YXEGTFTSDYXILLDKKAQXAFIEYLIEGGPSSGAPPPS; Aib, D-Ser, lipidated Lys, C-terminal amide; (2)..(2) Xaa at position 2 is Aib; (11)..(11) Xaa at position 11 is D-Ser; MOD_RES (17)..(17) Lys at position 17 is chemically modified by conjugation of the epsilon-amino group of the Lys side chain with (2-[2-(2-amino-ethoxy)-ethoxy]-acetyl)2-(gamma-Glu)-CO-(CH2)18- CO2H; (20)..(20) Xaa at position 20 is Aib; MOD_RES (39)..(39) Ser at position 39 is amidated) [Peptide 81] | 5.92
